# Laboratory results published in PMC10101081, “EBR-5, a Novel Variant of Metallo-β-Lactamase EBR from Multidrug-Resistant Empedobacter stercoris” (Microbiology Spectrum, 2023).
# Assays:
# [1] = target: T1, EBR-5 (Empedobacter stercoris, UniProt A0ABX1WID8); experiment: beta-lactamase inhibition assay; type: biochemical
# T1 construct: gene bla; 234-residue precursor; N-terminal signal peptide removed (predicted cleavage between 17 and 18, AFG-QI)
# [2] = system: CO[C@@]1(NC(=O)Cc2cccs2)C(=O)N2C(C(=O)O)=C(COC(N)=O)CS[C@@H]21; experiment: steady-state hydrolysis kinetics, Michaelis-Menten fit; type: biochemical, Empedobacter stercoris
# Source text: (§1) steady-state hydrolysis kinetics, Michaelis-Menten fit on EBR-5
# [3] = system: CO/N=C(\C(=O)N[C@@H]1C(=O)N2C(C(=O)[O-])=C(C[N+]3(C)CCCC3)CS[C@H]12)c1csc(N)n1; experiment: as above; type: biochemical, Empedobacter stercoris
# Source text: as §1
# [4] = system: C[C@@H](O)[C@H]1C(=O)N2C(C(=O)O)=C(SCCN=CN)C[C@H]12; experiment: as above; type: biochemical, Empedobacter stercoris
# Source text: as §1
# [5] = system: CO/N=C(\C(=O)N[C@@H]1C(=O)N2C(C(=O)O)=C(COC(N)=O)CS[C@H]12)c1ccco1; experiment: as above; type: biochemical, Empedobacter stercoris
# Source text: as §1
# [6] = system: CC(C)(O/N=C(\C(=O)N[C@@H]1C(=O)N2C(C(=O)[O-])=C(C[n+]3ccccc3)CS[C@H]12)c1csc(N)n1)C(=O)O; experiment: as above; type: biochemical, Empedobacter stercoris
# Source text: as §1
# [7] = system: C[C@@H](O)[C@H]1C(=O)N2C(C(=O)O)=C(S[C@@H]3CN[C@H](CNS(N)(=O)=O)C3)[C@H](C)[C@H]12; experiment: as above; type: biochemical, Empedobacter stercoris
# Source text: as §1
# [8] = system: O=C(Cc1cccs1)N[C@@H]1C(=O)N2C(C(=O)O)=C(/C=C/c3ccc([N+](=O)[O-])cc3[N+](=O)[O-])CS[C@H]12; experiment: as above; type: biochemical, Empedobacter stercoris
# Source text: as §1
# [9] = system: C[C@@H](O)[C@H]1C(=O)N2C(C(=O)O)=C(S[C@@H]3CN[C@H](C(=O)N(C)C)C3)[C@H](C)[C@H]12; experiment: as above; type: biochemical, Empedobacter stercoris
# Source text: as §1
# [10] = system: CC1(C)S[C@@H]2[C@H](NC(=O)Cc3ccccc3)C(=O)N2[C@H]1C(=O)O; experiment: as above; type: biochemical, Empedobacter stercoris
# Source text: as §1
# [11] = system: CC(=O)OCC1=C(C(=O)O)N2C(=O)[C@@H](NC(=O)Cc3cccs3)[C@H]2SC1; experiment: as above; type: biochemical, Empedobacter stercoris
# Source text: as §1
# [12] = system: CC1(C)S[C@@H]2[C@H](NC(=O)[C@H](N)c3ccccc3)C(=O)N2[C@H]1C(=O)O; experiment: as above; type: biochemical, Empedobacter stercoris
# Source text: as §1
# [13] = system: CO/N=C(\C(=O)N[C@@H]1C(=O)N2C(C(=O)O)=C(COC(C)=O)CS[C@H]12)c1csc(N)n1; experiment: as above; type: biochemical, Empedobacter stercoris
# Source text: as §1
# [14] = system: C[C@@H](O)[C@H]1C(=O)N2C(C(=O)O)=C(S[C@@H]3CN[C@H](C(=O)Nc4cccc(C(=O)O)c4)C3)[C@H](C)[C@H]12; experiment: as above; type: biochemical, Empedobacter stercoris
# Source text: as §1
compound,measurement,setting,value
O=C(O)CN(CCN(CC(=O)O)CC(=O)O)CC(=O)O [EDTA],IC50,[1],130 µM
O=C(O)[C@H]1/C(=C/CO)O[C@@H]2CC(=O)N21 [clavulanic acid],IC50,[1],> 2000 µM
EBR-5 (Empedobacter stercoris),Km,[2],182 ± 12 µM
same,kcat,[2],1.5 ± 0.04 s⁻¹
same,kcat/Km,[2],8500 M⁻¹ s⁻¹
same,Km,[3],"1,058 ± 58 μM"
same,kcat,[3],0.1 ± 0.01 s⁻¹
same,kcat/Km,[3],100 M⁻¹ s⁻¹
same,Km,[4],"1,218 ± 147 μM"
same,kcat,[4],124 ± 10 s⁻¹
same,kcat/Km,[4],102000 M⁻¹ s⁻¹
same,Km,[5],19 ± 2.3 µM
same,kcat,[5],2.1 ± 0.07 s⁻¹
same,kcat/Km,[5],111000 M⁻¹ s⁻¹
same,Km,[6],567 ± 76 µM
same,kcat,[6],0.9 ± 0.09 s⁻¹
same,kcat/Km,[6],1600 M⁻¹ s⁻¹
same,Km,[7],"1,283 ± 161 μM"
same,kcat,[7],145 ± 14 s⁻¹
same,kcat/Km,[7],113000 M⁻¹ s⁻¹
same,Km,[8],15 ± 1.7 µM
same,kcat,[8],18 ± 0.5 s⁻¹
same,kcat/Km,[8],1.17e+06 M⁻¹ s⁻¹
same,Km,[9],626 ± 61 µM
same,kcat,[9],147 ± 8.3 s⁻¹
same,kcat/Km,[9],236000 M⁻¹ s⁻¹
same,Km,[10],116 ± 16 µM
same,kcat,[10],86 ± 2.8 s⁻¹
same,kcat/Km,[10],745000 M⁻¹ s⁻¹
same,Km,[11],64 ± 6.4 µM
same,kcat,[11],27 ± 0.8 s⁻¹
same,kcat/Km,[11],419000 M⁻¹ s⁻¹
same,Km,[12],207 ± 21 µM
same,kcat,[12],118 ± 3.3 s⁻¹
same,kcat/Km,[12],572000 M⁻¹ s⁻¹
same,Km,[13],29 ± 3.9 µM
same,kcat,[13],2.8 ± 0.1 s⁻¹
same,kcat/Km,[13],94000 M⁻¹ s⁻¹
same,Km,[14],"1,507 ± 175 μM"
same,kcat,[14],151 ± 13 s⁻¹
same,kcat/Km,[14],100000 M⁻¹ s⁻¹
